The values below come from IntAct's records for PubMed 30567737.

B1: 17S U2 SnRNP complex component HTATSF1 (Homo sapiens), O43719 (parent)
chain: MSGTNLDGNDEFDEQLRMQELYGDGKDGDTQTDAGGEPDSLGQQPTDTPYEWDLDKKAWFPKITEDFIATYQANYGFSNDGASSSTANVEDVHARTAEEPPQEKAPEPTDARKKGEKRKAESGWFHVEEDRNTNVYVSGLPPDITVDEFIQLMSKFGIIMRDPQTEEFKVKLYKDNQGNLKGDGLCCYLKRESVELALKLLDEDEIRGYKLHVEVAKFQLKGEYDASKKKKKCKDYKKKLSMQQKQLDWRPERRAGPSRMRHERVVIIKNMFHPMDFEDDPLVLNEIREDLRVECSKFGQIRKLLLFDRHPDGVASVSFRDPEEADYCIQTLDGRWFGGRQITAQAWDGTTDYQVEETSREREERLRGWEAFLNAPEANRGLRRSDSVSASERAGPSRARHFSEHPSTSKMNAQETATGMAFEEPIDEKKFEKTEDGGEFEEGASENNAKESSPEKEAEEGCPEKESEEGCPKRGFEGSCSQKESEEGNPVRGSEEDSPKKESKKKTLKNDCEENGLAKESEDDLNKESEEEVGPTKESEEDDSEKESDEDCSEKQSEDGSEREFEENGLEKDLDEEGSEKELHENVLDKELEENDSENSEFEDDGSEKVLDEEGSEREFDEDSDEKEEEEDTYEKVFDDESDEKEDEEYADEKGLEAADKKAEEGDADEKLFEESDDKEDEDADGKEVEDADEKLFEDDDSNEKLFDEEEDSSEKLFDDSDERGTLGGFGSVEEGPLSTGSSFILSSDDDDDDI

The variants in the test derive from B1. As to conditions: with SF3B1, O75533-1.
Chain of SF3B1, O75533-1 (O75533 whole entry): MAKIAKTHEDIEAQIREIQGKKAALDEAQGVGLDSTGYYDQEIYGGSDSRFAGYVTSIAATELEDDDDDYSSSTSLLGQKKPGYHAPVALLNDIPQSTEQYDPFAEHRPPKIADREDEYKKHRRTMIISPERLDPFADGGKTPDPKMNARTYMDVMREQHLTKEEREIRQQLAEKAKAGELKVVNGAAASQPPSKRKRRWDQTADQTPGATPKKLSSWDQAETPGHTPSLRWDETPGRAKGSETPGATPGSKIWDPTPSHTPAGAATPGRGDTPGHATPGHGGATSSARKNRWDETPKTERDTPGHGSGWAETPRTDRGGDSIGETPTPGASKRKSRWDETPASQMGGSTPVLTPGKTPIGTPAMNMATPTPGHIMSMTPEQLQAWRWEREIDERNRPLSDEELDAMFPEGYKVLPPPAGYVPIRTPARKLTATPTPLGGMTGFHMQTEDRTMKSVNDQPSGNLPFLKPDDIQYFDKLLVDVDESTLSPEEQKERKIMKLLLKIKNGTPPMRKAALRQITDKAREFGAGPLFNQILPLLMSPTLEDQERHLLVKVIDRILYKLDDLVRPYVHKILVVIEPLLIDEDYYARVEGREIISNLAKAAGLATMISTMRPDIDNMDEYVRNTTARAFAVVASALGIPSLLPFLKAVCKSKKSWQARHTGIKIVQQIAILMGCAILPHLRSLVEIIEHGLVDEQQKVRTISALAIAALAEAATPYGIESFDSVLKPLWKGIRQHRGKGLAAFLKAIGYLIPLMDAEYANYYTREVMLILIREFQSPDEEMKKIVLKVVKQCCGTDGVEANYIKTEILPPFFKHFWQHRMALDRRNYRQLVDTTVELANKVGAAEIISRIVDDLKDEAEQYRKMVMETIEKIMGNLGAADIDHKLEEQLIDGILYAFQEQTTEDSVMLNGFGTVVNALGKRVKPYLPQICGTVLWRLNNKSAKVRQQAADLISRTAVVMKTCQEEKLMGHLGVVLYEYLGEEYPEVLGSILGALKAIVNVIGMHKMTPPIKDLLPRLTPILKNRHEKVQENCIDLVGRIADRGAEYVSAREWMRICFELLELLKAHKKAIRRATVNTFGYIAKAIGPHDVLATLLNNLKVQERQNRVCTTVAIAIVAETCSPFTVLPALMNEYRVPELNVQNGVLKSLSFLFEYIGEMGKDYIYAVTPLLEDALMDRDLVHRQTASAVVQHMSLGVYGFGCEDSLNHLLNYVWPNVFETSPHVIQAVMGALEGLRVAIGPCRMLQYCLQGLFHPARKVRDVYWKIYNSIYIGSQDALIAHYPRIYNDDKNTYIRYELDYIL
Consider E286K;F337A, for which the “effect of a mutation on the interaction” value is “disrupting interaction strength”.

As to E286K;D290K, the “effect of a mutation on the interaction” value was “disrupting interaction strength”.
